Changes are numbered by the printed parent chain. Names and notes keep the numbering of the source.

The source of these data is publication PMC4664265, “Substrate-Induced Dimerization of Engineered Monomeric Variants of Triosephosphate Isomerase from Trichomonas vaginalis” (PLoS ONE, 2015).

Data set [1] concerns the target TvTIM1 I45Y (Trichomonas vaginalis) (UniProt A2EGX9).
For data set [2], the target named is TvTIM1 I45F (Trichomonas vaginalis) (UniProt A2EGX9).
Data set [3] has as its target TvTIM1 I45A (Trichomonas vaginalis) (UniProt A2EGX9). Put plainly: AUC.
For data set [4] the target is unchanged. As to the kind of experiment: SEC; gel filtration at 7 mg/ml (~260 μM) in Tris pH 7.4, 100 mM NaCl; dimer to monomers. In general terms: Size exclusion chromatography separates by hydrodynamic size, large species first.
Data set [5] shares this target.
Data set [6] addresses TvTIM1 I45G-Q52C double mutant (Trichomonas vaginalis) (UniProt A2EGX9).
Data set [7] has as its target TvTIM1 I45G (Trichomonas vaginalis) (UniProt A2EGX9). As to the kind of experiment: SEC; gel filtration at 7 mg/ml (~260 μM) in Tris pH 7.4, 100 mM NaCl; dimer to monomers.
Data set [8] has the same target.
Data set [9] concerns the molecule itself. Put plainly: SEC; gel filtration at 7 mg/ml (~260 μM) in Tris pH 7.4, 100 mM NaCl; dimer to monomers.
Data set [10] concerns the molecule itself. Put plainly: AUC; sedimentation velocity, 20°C, 129,024 rcf, absorbance at 280 nm, c(s) with SEDFIT; protein 7 to 35 μM, no ligand.

In turn, “TvTIM1 I45Y (from UniProt A2EGX9) (enzyme)” returned a Kcat/Km (substrate DGAP, coupled assay, 25°C; enzyme at 12 nM) in data set [1] of 12200 M⁻¹ s⁻¹.
In the case of “TvTIM1 I45F (from UniProt A2EGX9) (enzyme)”, the Kcat/Km (substrate DGAP, coupled assay, 25°C; enzyme at 10 nM) in [2] worked out at 33300 M⁻¹ s⁻¹.
As to “TvTIM1 I45A (from UniProt A2EGX9) (enzyme)”, in data set [3], the percent dimer with 20 μM PGH came out at 17%, the percent dimer with 250 μM PGH is 38%, the percent dimer with 600 μM PGH came to 38% and the percent dimer with 1000 μM PGH came to 44%. This molecule returned a percent dimer with 2000 μM PGH in [3] of 46%. Moreover, in data set [4], the percent of the total injected protein in the dimer peak was 13% and the percent of the total protein in the dimer peak was 3%. For the same molecule, in data set [5], the Kcat/Km (substrate DGAP, coupled assay, 25°C; enzyme at 2 nM) was 198000 M⁻¹ s⁻¹.
In data set [6], “TvTIM1 I45G-Q52C double mutant (from UniProt A2EGX9 1-252) (enzyme)” displayed a Kcat/Km of I45G-Q52C before cross-linking (substrate DGAP, coupled assay, 25°C) of 39700 M⁻¹ s⁻¹ and a Kcat/Km of the purified cross-linked I45G-Q52C dimer (substrate DGAP, coupled assay, 25°C) of 2.5e+06 M⁻¹ s⁻¹.
“TvTIM1 I45G (from UniProt A2EGX9) (enzyme)” yielded a percent of the total protein in the dimer peak in [7] of 6%. The Kcat/Km (substrate DGAP, coupled assay, 25°C; enzyme at 5 nM) in data set [8] amounted to 40800 M⁻¹ s⁻¹.

B1: TvTIM1 I45V (enzyme)
chain: MRTFFVGGNWKANPKTVEEAEKLIEMLNGAKVEGNVEVVVAAPFVFLPTLQQKLRKDWKVSAENVFTKPNGAFTGEVTVPMIKSFGIEWTILGHSERRDILKEDDEFLAAKAKFALENGMKIIYCCGEHLSEREAGKASEFVSAQIEKMIPAIPAGKWDDVVIAYEPIWAIGTGKVASTQDAQEMCKVIRDILAAKVGADIANKVRILYGGSVKPNNCNELAACPDVDGFLVGGASLEPGFINIVNSNVHSK
For orientation: stoichiometry N means the number of molecules, sites or subunits per partner or assembly. On to B1, for which the “stoichiometry N” value in data set [9] turned out to be 2.

B2: Triosephosphate isomerase 1 from Trichomonas vaginalis, wild type (enzyme, UniProt A2EGX9 1-252, looked up)
chain: B1 chain with V45I
notes: triosephosphate isomerase TvTIM1 of Trichomonas vaginalis; Homodimer in solution (gel filtration, AUC); the rows are of one chain with another; also called TvTIM1; TIM1WT
On to B2, for which the “stoichiometry N” value in data set [10] worked out at 2.

B3: TvTIM1 I45L (enzyme)
chain: B1 chain with V45L
With B3, the “stoichiometry N” value in data set [9] stood at 2.
